Data: the Human Domainome abundance scans (Beltran et al. 2025)
± gives the uncertainty stated by the source.

B1: POU domain, class 5, transcription factor 1, residues 134 to 212; numbered along this chain, Q01860 (parent)
chain: EESQDIKALQKELEQFAKLLKQKRITLGYTQADVGLTLGVLFGKVFSQTTICRFEALQLSFKNMCKLRPLLQKWVEEAD

Variants of: B1
Test: abundance fitness (aPCA) (normalised: wild type 0, dead -1); higher = more abundant; growth selection in yeast, the domain comes from the species named
Conditions: Homo sapiens

Variant | abundance fitness
T50C | -0.298 ± 0.31
T50E | 0.231 ± 0.11
T50G | -0.601 ± 0.13
T50M | -0.27 ± 0.29
T50A | -0.316 ± 0.15
T50R | -0.756 ± 0.19
T50L | -0.626 ± 0.32
T50S | -0.542 ± 0.2
T50Q | -0.411 ± 0.34
T50W | -0.43 ± 0.22
T50V | 0.015 ± 0.087
T50H | 0.017 ± 0.4
R53K | 0.029 ± 0.41
R53D | -0.027 ± 0.23
R53H | 0.118 ± 0.26
R53S | -0.467 ± 0.34
R53P | -0.287 ± 0.46
R53Q | -0.074 ± 0.17
R53E | -0.078 ± 0.16
R53T | -0.356 ± 0.38
R53A | -0.06 ± 0.21
R53G | -0.421 ± 0.16
N63S | 0.299 ± 0.11
N63F | -0.2 ± 0.43

Variant | abundance fitness
N63A | 0.045 ± 0.11
N63L | -0.336 ± 0.2
N63Q | -0.236 ± 0.24
N63C | -0.31 ± 0.24
N63T | -0.303 ± 0.22
N63H | -0.183 ± 0.31
N63K | 0.172 ± 0.23
N63V | -0.305 ± 0.13
N63E | 0.126 ± 0.14
N63R | 0.037 ± 0.095
N63Y | -0.387 ± 0.5
N63D | -0.093 ± 0.24
N63M | -0.088 ± 0.33
N63G | -0.314 ± 0.1
N63W | -0.832 ± 0.39
S47Q | -0.196 ± 0.32
S47F | -0.094 ± 0.29
S47T | -0.169 ± 0.24
S47R | -0.469 ± 0.15
S47L | -0.756 ± 0.35
S47E | -0.228 ± 0.2
S47K | -0.597 ± 0.48
A56D | 0.18 ± 0.13
A56G | -0.06 ± 0.076

Variant | abundance fitness
A56H | -0.245 ± 0.21
A56S | -0.002 ± 0.1
A56Q | 0.059 ± 0.13
A56R | -0.492 ± 0.17
A56P | -0.345 ± 0.37
A56T | -0.243 ± 0.24
A56M | 0.159 ± 0.16
A56K | -0.197 ± 0.18
A56W | -0.812 ± 0.23
A56C | -0.098 ± 0.19
A56E | 0.067 ± 0.09
A56V | -0.464 ± 0.14
A56N | 0.067 ± 0.28
C52E | 0.086 ± 0.31
C52Y | -0.604 ± 0.4
C52L | -0.07 ± 0.31
C52M | 0.451 ± 0.26
C52F | -0.343 ± 0.29
C52S | 0.341 ± 0.2
C52D | 0.203 ± 0.3
C52N | 0.175 ± 0.46
C52R | 0.47 ± 0.18
C52K | 0.356 ± 0.25
C52A | 0.424 ± 0.15

Variant | abundance fitness
P69L | -0.351 ± 0.13
P69F | -0.473 ± 0.3
P69A | -0.252 ± 0.12
P69Q | -0.618 ± 0.43
P69V | -0.414 ± 0.099
P69M | -0.662 ± 0.21
P69H | -0.208 ± 0.28
P69G | -0.085 ± 0.13
P69W | -0.999 ± 0.29
P69T | -0.652 ± 0.2
P69N | -0.008 ± 0.27
P69R | -0.613 ± 0.13
P69K | -0.304 ± 0.18
K62P | -0.08 ± 0.24
K62S | 0.041 ± 0.13
K62V | -0.24 ± 0.14
K62M | 0.192 ± 0.23
K62G | -0.146 ± 0.083
K62H | -0.19 ± 0.36
K62C | -0.489 ± 0.44
K62I | -0.238 ± 0.4
K62R | -0.143 ± 0.083
K62D | 0.201 ± 0.17
K62Q | 0.046 ± 0.24

Variant | abundance fitness
K62T | -0.055 ± 0.19
K62E | 0.038 ± 0.15
K62L | -0.579 ± 0.27
F54R | -0.621 ± 0.12
F54G | -0.695 ± 0.14
F54C | -0.5 ± 0.38
F54W | -0.797 ± 0.22
F54V | -0.625 ± 0.18
F54Q | -0.891 ± 0.47
F54K | -0.662 ± 0.42
F54A | -1.13 ± 0.5
F54S | -0.562 ± 0.24
F54T | 0.078 ± 0.29
F54M | -0.535 ± 0.24
F54E | -0.828 ± 0.33
F54P | -0.719 ± 0.4
K73A | -0.131 ± 0.092
K73I | -0.448 ± 0.34
K73H | -0.349 ± 0.33
K73G | -0.386 ± 0.1
K73F | -0.566 ± 0.34
K73E | -0.595 ± 0.17
K73C | -0.397 ± 0.17
M64W | -0.667 ± 0.22

Variant | abundance fitness
M64D | -0.816 ± 0.32
M64R | -0.871 ± 0.15
M64K | -0.279 ± 0.13
M64G | -0.621 ± 0.12
M64N | -0.608 ± 0.23
M64P | -0.604 ± 0.27
M64C | -0.739 ± 0.33
M64F | -0.8 ± 0.47
M64Y | -1.06 ± 0.5
M64Q | -0.802 ± 0.23
M64T | -0.496 ± 0.14
M64E | -0.763 ± 0.23
M64L | -0.333 ± 0.11
M64V | -0.675 ± 0.15
M64A | -0.251 ± 0.11
I51G | -0.25 ± 0.15
I51K | -0.067 ± 0.44
I51V | -0.48 ± 0.27
I51A | -0.916 ± 0.42
I51R | -0.575 ± 0.34
I51T | -0.338 ± 0.28
Q72L | -0.323 ± 0.14
Q72D | -0.379 ± 0.24
Q72R | -0.309 ± 0.096

Variant | abundance fitness
Q72V | -0.337 ± 0.13
Q72Y | -0.582 ± 0.41
Q72C | -0.09 ± 0.17
Q72K | -0.025 ± 0.18
Q72T | -0.36 ± 0.17
Q72H | -0.039 ± 0.28
Q72W | -0.837 ± 0.31
Q72A | -0.354 ± 0.13
Q72E | 0.342 ± 0.091
Q72S | -0.371 ± 0.15
Q72I | -0.119 ± 0.3
Q72P | -0.438 ± 0.21
Q72M | -0.31 ± 0.16
Q72G | -0.302 ± 0.11
L71P | -0.07 ± 0.17
L71M | -0.251 ± 0.13
L71Q | -0.658 ± 0.27
L71D | -0.869 ± 0.42
L71V | -0.728 ± 0.17
L71S | -0.911 ± 0.26
L71Y | -0.435 ± 0.28
L71W | -0.323 ± 0.15
L71T | -0.246 ± 0.16
